The text below walks through data of the DeepSol protein solubility set.

This data set can be described thus: soluble on expression in E. coli; label from the status in PepcDB or PDB records.
Turning to “MGSDKIHHHHHHMPEQQKSVTGTSLFERYTLSQAYDEMFTAEGDIRPAYSELARLLCSISPAELQQRQRYADLTFLNQGITFTVYGNDAGVERVFPYDLLPRIIAADEWQHIERGLHQRIVALNLFLHDVYHNENILRDGIIPRHLVYSCRHYRREMRGLTVPRGVYTAIVGTDLVRLPDGQFVVLEDNLRVPSGVSYMLTNRAVMKRALPRLFGAYGVRPIDHYGQALLATLRALAPAHRPEPTIVLLTPGVFNSAYFEHTFLARQMGIELVEGRDLLVHNNIVYMRTTKGLQRVDVIYRRIDDDFLDPMIFRPDSVLGVPGLFNAYRAGTVVLANAIGTGVADDKAIYAYVPDIIRYYLGEEPILPNVTTYLCDRPDECAYVLEHLGDLVVKAVGESGGYDMLIGPHSTREEQAQFAERIRAQPRNYIAQPTLQLSQAPCFIDGVIEPRHVDLRPFVLFDGERTTIVPGGLTRVALRRGSLVVNSSQGGGSKDTWVLY”, the “soluble on expression in E. coli” value is reported as “not soluble”.

As to “MSLKFAAGFVLIDAPHSALNMLGIDESLPDRNVTRVKTLRRGGNRYVYISPQAWRYWWRITLKEYFNWELSPLFREEKQVFTAANPIKYPDDDVFGYMRAYKKNKVNVTVTRISPLKNTPLVSVLPDRSSLTIDEGYASRHEGDPVPYSQEFYSTVLKGAFSLDLDLVGRFTTKNKAGYKNLLTRDDIPKKGKGEDIVKEIKELEELARNVGVEIKDGEWIMPKEIRKKRSIETIKALRYLTGGAKQTQYHTDVTPKLFLGIIVNGGINPFISDIVREEKGEIILDAEALATRLEDFSDIIDSKLFLGYDMGFVRSLGLEIEAIKSTAGIEVVEGKVGEIIEKFAEEAGKYYIEGHHHHHH”, the “soluble on expression in E. coli” value is listed as “soluble”. The same measure for “MGSDKIHHHHHHMAFAMKVISQVEAQRKILEEAVSTALELASGKSDGAEVAVSKTTGISVSTRYGEVENVEFNSDGALGITVYHQNRKGSASSTDLSPQAIARTVQAALDIARYTSPDPCAGVADKELLAFDAPDLDLFHPAEVTPDEAIELAARAEQASLKADKRITNTEGGSFNSHYGIKVFGNSHGMLQGYCSTRHSLSSCVIAEENGDMERDYAYTIGRAMADLQAPEWVGAECARRTLSRLSPRKLSTMKAPVIFANEVATGLFGHLVGAIAGGAVYRKSTFLLDSLGKQILPEWLTIEEHPHLLKGLASSPFDSEGVRTERRDIVKDGVLTQWLLTNYSARKLGLKSTGHAGGIHNWRIAGQGLNFEQLLKEMGTGLVVTELMGQGVSGITGDYSRGAAGFWVENGEIQYPVSEITIAGNLKEMWRNIVTVGDDIETRSNIQCGSVLLPEMKIAGQ”: “not soluble”; for “MKVVVIDAGHGAKDSGAVGISRKNYEKTFNLAMALKVESILKQNPKLEVVLTRSDDTFLELKQRVKVAENLKANVFVSIHANSSGSSASNGTETYYQRSASKAFANVMHKYFAPATGLTDRGIRYGNFHVIRETTMPAVLLEVGYLSNAKEEATLFDEDFQNRVAQGIADGITEYLDVK”: “soluble”; for “MGSDKIHHHHHHMNPPKRLLVIHRALAPYRIELLNTLSAAFDTHIYFEFASPIEQRFDAGELAKRVHFQSSVLPPAPKIPGLKNFRPYAASLVRSLRPDVVLCSEFNLLTLTLTAASRLFSPKTKLYVLCDDNEQMAEAELHYGRGLKHRMLSYVEGVILCDSRACDLYASRFATLDRERFVYLPIVQDEKVLRPLYEQVFGIGRDLRHALIPAGARMILYVGRLSEEKNLPALIDNLSTLPDDVHLVIVGDGPMQSALMNQVQATGHPERIIFAGKKEGAELYAYYTQADCLVLPSMRECFGSVVNEALIAGVPVVCSDIAGASCLVTESNGRTFSPMLPNALSQACNDLLGSIAPFCGDSLRPSLMPFTFERAIAPVLSLLSR”: “not soluble”.

For the sequence “MCDISTEDQLLEFARKAAESGDQTQTFEFKKHIGFLIRHLNVFPQPYNTLETSRNTIFLFAISSLDLLGELDNLLTPERRQAYIDWIYGLQFTNGNVCGFRGSHSCENSGYDEANLAQTYSALLSLAILGDDLKKVDRKAILKTVKTAQRDNGCFWSQGVGSESDMRFVFCAVAISHILDGDKEQTIDWTKLAGFLRQSLNIDGGIGQAPGDESHGGSTFCAIASLALSNRLWTEEVLTRRDIDRLIRWAIQKQDIGFHGRAHKPDDSCYAFWIGATLKILNAYHLVSKQHLREFLMICQHPHIGGFCKYPEPGGYSDILHTYFSIAALSLLGEPAVNPVHPSLNVSMRVAERIARLQFD”, the “soluble on expression in E. coli” value is “not soluble”. For the sequence “MEGDVLSGFGDRHNMDGKLLQSFQKSFVDVQDILDQNRLLINEINQNHESKQPDNLGRNVGLIKELNNNIRRVASLYGDLSHSFARSVDASSEGESSGTLKSDGKANQKRFRSGDGSLVPATDEEMLEVKNLLEKNEQDMPVLPDPIQTEEYIPDEGSPSQFLQLENFEGKTYCIHAKTDRISLGLHDKGIYWVTCNVGAINFTPPLKLLQSKEELMNGSQMLFVLPDTKFQISTELSGNVELVPSKVLLQEPILFSSNGCSINQSTDVLNATASPKEPALSTAASKPDFSRVPGEISLANLSIKELQETFRATFGRETTSKDKRWLKRRIKMGLINSCVVPTTTLTINDSKLIGGDQDAIDAFSKGTVDEETATESIDTPASPDGIKGHSNDFGHSPVETFVDHYSGNEDFEGEDGSAKRVRKPTRRYIEETNEKQQIDGSMIPSKDPSSIQAVSSEGRVVVTRMVSLAGSRIQVPYVSHVRRSRPRENIMALGEFRSKSWEVKAAPEEGNLNLSPPQLSNDVNRVPGVKSASRCVQKESDKDHLKPIFTDVDQEMMEPELLDSSGDSSDDNFVDAPITQSASGRKLHRAWTISEVEKLVEGVSKYGVGKWTEIKKLSFSPYTHRTTVDLKDKWRNLQKASSSNRMEGGLKKHGSMAIPTHIMLQVRELAQKQSPISRVVSKARVVKRSRSRNGFL”, the “soluble on expression in E. coli” value is listed as “soluble”.

As to “MASIKKVYRGMKNGAETINDDLEAINSELTSGGNVVHKTGDETIAGKKTFTGNVEVNGSLTLPTKSWSGELGGGIILSLRKKGTTVEYSIGGEISSSILANSNLVNRSVPNEFCPRNRCSLVGHMVGGWNAFHIDIPSSGVCQWFGPTASSGTPRGTGTYPIDHHHHHH”, the “soluble on expression in E. coli” value is reported as “soluble”. Turning to “KVTKLINDDPTLTHDQKVDQINKVEQAKLDAIKSVDDAQTADAINDALGKGIENINNQYQHGDGVDVRKATAKGDL”, the “soluble on expression in E. coli” value is “not soluble”. For the sequence “MSKWLNVGKIVNTHGVRGEVRVLSTTDFEDDRFSSGKTLYVMRPNQNERVAVTVASHRKHKNFDLLCFEGYPSINDVEAFKGGRLQVPIEDRPELGEGEFFYHEIIGCSVVTIAGEELGKVKEILSPGANDVWVVQCRRGGKDLLIPYIEQVVKQVDLEKQQITIEPMEGLLEAAALEHHHHHH”, the “soluble on expression in E. coli” value is on record as “soluble”. Regarding “MRCPKCNYHKSSVVDSRQAEDGNTIRRRRECEQCHTRFTTFERVEELPLLVIKKDGTREQFSRDKILNGVVQSAQKRPVSSTDIENVISRIEQEVRTTYENEVSSTAIGNLVMDELAELDEITYVRFASVYKSFKDVDEIEELLQQITNRVRGKKKRLNNDETN”, the “soluble on expression in E. coli” value was “not soluble”. Turning to “MTNKLTSLTIAFVGALSSMGAQAHGWVEYPSARQNTCYLDGGFWDNTIPNQACQAAYDESGAFPFVQRNEVAANVPNYQDMAHVQAIVRDGHLCSAGDAAKSGLNLGSLHWQKTAIALDANNQIELIFNATAPHNPSYWQFYLSNENYDPTVPLTWGDLVLIDTAGNVPVGEDKKYRIKITLPADRSDSAVLYTRWQREDAAGEGFYNCSDISFNGSGTTPPKPTDPVEPPQYSDLGYYINQGFGPVESGDTVRFRTFDSTGAETTDISLAITANNTSTWSAELAGQFNQLKNKEWFIGIWHQEMNHYMYDSNNIYANKVFAPTANVSYQLSLIKADITPPVEPPVEPSNPWDKTATYNAGDIVDHNGKAWVAQWWTKGEEPGTTGEWGVWR”, the “soluble on expression in E. coli” value was “not soluble”. Take “MFQPEKIDPEEATAAIAEVAYIVTVSDYIGNVIRSLYPQASPKLRTIYSVVDSERFLPGNHPKMQKIRNDIRRAHGLENKTVILFAGRLSRNKGVDKLILALPELAKKFKNLALVIVGSNWFSENDITDYVAYVRALAKRMPVPVVTTGFVPPNEIQNWFAAADLFVCTSQWQEPLARVHYEAMAAGLPIVTTARGGNPEVIFANENGLIVENPEDPSDFANKIAQILSDQSLMRRMGEKGRQLAISIYHWERVASELLEVWEQAEKTEQAVVSEEQAAGMTIEPLKEDATEQLNGPTPKADAKEKVHSKKNAAASSNKTKKGKAKKERAISMEDHQQTAKQKEAAAERTELAKSAPAPKQPQTGRHIKPFTIASGNQQTLDASPKTHLNRKLAQAKHDTKHFTIASSH”: the “soluble on expression in E. coli” value is given as “not soluble”.

As for “MGSDKIHHHHHHMPKLGFVQVEVSTRCQLSCLMCPKSCFSDEWIAKDMNMETFRLIPFKKFHYAHLQGWGEPLLNPNIGEMVDIAAKSCKVGLTTNGLLIDHHIDSILKLDLLAVSVASGDARQHERVRGCSLEKLAGNIKLVSESRGKRPKIVIATMMLKSTIESLPKLIDFAAECGADEVIANNLDYIPSKELVGEEVFGLTADKDVEKAVEQAGKRAEELGIGFIAKPRLMEEALVCAENPVENCVVAVDGRIAPCAYLNLPTASETIPRWFRGRTVEVPKVYFSSFKEWLKSDFRDTFKRRLQVLHQSLPTELPPLPQPCRTCYKAYSV”, the “soluble on expression in E. coli” value was “not soluble”.

Regarding “MAHHHHHHMVSFSLIIYTSLRLAHACDARNCTLQQLGRQLEAVVTVCDESSSTTTTESTSERANNASSAADATRTGQGADAAQQVHSTTQAKRASLARDSDFKSSSEIAAFSVLRAWCPPPTARILILGMGGNSMAHALRVVLGAEALIEVVEVEPAVVVSCMQMGTLHESDTKTKVHLQDADQCLATLPPTTYDFIYMDIFEPIQATMRNLHPWVLATRTLLKPGGLLVMNDHHLPSAAGVAPYAKVFGEGNVQAVNLRGWSESIVVCVAPGDAATDKYSLDVSKTHADIAFNIYETLVPGWLPHFSWLVKAKTYRHEGVRCRLWTS”, the “soluble on expression in E. coli” value was “soluble”. The same measure for “MDINTDKYKNITRNLEREMINLNPIQRGGILPTESKKIIYEYWDGYSVCDYCSGRLDQIETPPINEFLEDMSKFLGMDITRPTHGARESKYAVMNSICKEGDYVVLDGNAHYTSYVALERAKLNYEKTDIEEYPTFRVIPESYAEKIDMLEDSKKNIGLILLTHVDGNYGNVADVEKVGKIAKSKGYPFLLNCAYSAGRMPIDGKKLNVDFIAASGHKSMAASGPCGLLSINKKYENEVLETSKVNVLKELQMLGCTSRGIPILSLMASFEHLIERVKKWDLELEKTRKVVNELEPLGFKQIGEKPRNHDIIRFETPILDEIAEKDKRRGFFFYEELKKRGIGGIRRGVTKEFKMSVYGLTNTQVDYVINSMKSIINELR”: “not soluble”; for “AECSVDIQGNDQMQFNTNAITVDKSCKQFTVNLSHPGNLPKNVMGHNWVLSTAADMQGVVTDGMASGLDKDYLKPDDSRVIAHTKLIGSGEKDSVTFDVSKLKEGEQYMFFCSELCGINHALMKGTLTLK”: “soluble”. Take “MNQKPTPLMSPPPPAQQNGKDHKEKLHRIEDIMYSDADTFPEFSNRDGSRETVDTCWQLVLIRVPEHPNETHIKTINDAITSEMKATWKIPATSFAYVSAPHIPILQLAYGVAKKHFGEKTAIRSSFMFAEPKNDKFLIAKDSDLKHLKYEVILGASRFCWTKVETHAEMSKRIESTLFELMRVLPNLVLFLGPLAFDVLYETLEMQKRKTIAKPGVVIENFKRENNKWKRVQKHGATSISVPLC”: the “soluble on expression in E. coli” value is “not soluble”. The same measure for “MASYRKRENGLWEYRISYKTIDGKYKRKEKGGFKTKKLAQAAAIEIEKKLTQNILTNDEVTLYDFVKTWSEVYKRPYVKDKTWETYSKNFKHIKNYFQELKVKDITPLYYQKKLNEFGEKYAQETLEKFHYQIKGAMKVAVREQVVTFNFAEGAKVKSQVEPKNEEEDFLEEREYKALLALTRENIQYVSYFTLYLLAVTGLRFSEAMGLTWSDIDFKNGILDINKSFDYSNTQDFADLKNESSKRKVPIDSNTIDILREYKKNHWQANIKNRVCFGVSNSACNKLIKKIVGRKVRNHSLRHTYASFLILNGVDIVTISKLLGHESPDITLKVYTHQMEALAERNFEKIKNIFLVA”: “not soluble”.
